Data on three substances can be found in patent publication US20250333531A1.

The target in experiment [1] is FcγRIIIa-V158 on Promega Jurkat effector cells (UniProt P08637). Briefly: cell-based or functional assay.
Experiment [2] deals with biotinylated truncated soluble human FcγRIIa-R131 (human) (UniProt P12318). The experiment can be described thus: ELISA: IgG coated at 10000-4.5 ng/ml, biotinylated truncated soluble human FcγRIIa-R131 250 ng/ml pre-complexed with AP-streptavidin, absorbance 405 nm. A general note: ELISA stands for enzyme-linked immunosorbent assay.
biotinylated truncated soluble human FcγRIIa-R131 (human), sequence (P12318 34-217 H167R): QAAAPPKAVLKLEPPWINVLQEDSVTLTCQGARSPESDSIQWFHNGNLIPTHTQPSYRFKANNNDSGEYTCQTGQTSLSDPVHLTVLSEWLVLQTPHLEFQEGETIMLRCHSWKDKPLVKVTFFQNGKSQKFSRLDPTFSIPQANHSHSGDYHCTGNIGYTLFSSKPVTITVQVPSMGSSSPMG
The target in experiment [3] is biotinylated truncated soluble human FcγRI (human) (UniProt P12314). The experiment can be described thus: ELISA: IgG coated at 10000-4.5 ng/ml, biotinylated truncated soluble human FcγRI 250 ng/ml pre-complexed with AP-streptavidin, absorbance 405 nm.
biotinylated truncated soluble human FcγRI (human), sequence (P12314 16-292): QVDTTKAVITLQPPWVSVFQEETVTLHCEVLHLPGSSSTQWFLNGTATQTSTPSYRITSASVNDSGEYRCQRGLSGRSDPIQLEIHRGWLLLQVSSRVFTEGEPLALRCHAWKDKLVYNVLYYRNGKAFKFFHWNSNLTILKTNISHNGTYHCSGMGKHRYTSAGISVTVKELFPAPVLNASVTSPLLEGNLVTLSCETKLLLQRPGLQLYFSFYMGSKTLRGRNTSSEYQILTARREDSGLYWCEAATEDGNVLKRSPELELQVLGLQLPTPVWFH
Experiment [4] addresses biotinylated truncated soluble human FcγRIIb (human) (UniProt P31994). Briefly: ELISA: IgG coated at 10000-4.5 ng/ml, biotinylated truncated soluble human FcγRIIb 250 ng/ml pre-complexed with AP-streptavidin, absorbance 405 nm.
For experiment [5], the target named is biotinylated truncated soluble human FcγRIIa-H131 (human) (UniProt P12318). Briefly: ELISA: IgG coated at 10000-4.5 ng/ml, biotinylated truncated soluble human FcγRIIa-H131 250 ng/ml pre-complexed with AP-streptavidin, absorbance 405 nm.
biotinylated truncated soluble human FcγRIIa-H131 (human), sequence (P12318 34-217): as the sequence (P12318 34-217 H167R) above, with R134H counted along it
For experiment [6], the target named is biotinylated soluble human FcRn (human) (UniProt P55899). The experiment can be described thus: ELISA: IgG coated at 1000-0.45 ng/ml, biotinylated soluble human FcRn 250 ng/ml pre-complexed with AP-streptavidin, pH 7.4, absorbance 405 nm.
biotinylated soluble human FcRn (human), sequence (P55899 24-297 limits assumed, chain 1 of 2): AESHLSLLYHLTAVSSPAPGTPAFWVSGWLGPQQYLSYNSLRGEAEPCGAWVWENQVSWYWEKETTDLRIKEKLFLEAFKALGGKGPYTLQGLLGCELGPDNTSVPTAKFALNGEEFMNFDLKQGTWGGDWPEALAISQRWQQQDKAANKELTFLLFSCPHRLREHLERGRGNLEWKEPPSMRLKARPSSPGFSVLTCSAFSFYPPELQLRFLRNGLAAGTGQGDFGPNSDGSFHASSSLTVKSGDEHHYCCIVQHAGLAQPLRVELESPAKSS
biotinylated soluble human FcRn (human), sequence (chain, as listed by the source limits assumed, chain 2 of 2): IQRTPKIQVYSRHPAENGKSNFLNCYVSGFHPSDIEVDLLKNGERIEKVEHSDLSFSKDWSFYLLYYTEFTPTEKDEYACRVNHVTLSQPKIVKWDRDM
In experiment [7] the target is biotinylated truncated soluble human FcγRIIIa-V158 (human) (UniProt P08637). Briefly: ELISA: IgG coated at 10000-4.5 ng/ml, biotinylated truncated soluble human FcγRIIIa-V158 250 ng/ml pre-complexed with AP-streptavidin, absorbance 405 nm.
A further experiment has as its target human CD37 (human) (UniProt P11049). The experiment can be described thus: flow cytometry on Ramos cells, isotype control, MFI normalised to chHH1-DOTA (blank supernatant 28.3%). (In flow cytometry, cells or beads pass a laser one at a time.)
In experiment [8] the target is CD20 (UniProt P11836). Briefly: flow cytometry, FITC-labelled antibody on Daudi and SU-DHL-6 cells.
CD20, sequence (P11836 whole entry): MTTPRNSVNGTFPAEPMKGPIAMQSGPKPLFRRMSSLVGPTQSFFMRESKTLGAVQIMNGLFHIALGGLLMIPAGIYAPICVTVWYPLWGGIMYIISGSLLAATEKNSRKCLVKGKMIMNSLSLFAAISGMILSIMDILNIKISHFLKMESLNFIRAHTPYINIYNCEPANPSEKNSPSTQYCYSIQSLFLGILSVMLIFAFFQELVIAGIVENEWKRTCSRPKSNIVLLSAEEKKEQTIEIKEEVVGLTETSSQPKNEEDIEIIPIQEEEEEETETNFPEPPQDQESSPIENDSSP
Experiment [9] deals with CD20 (UniProt P11836). Briefly: flow cytometry on CLL patient sample CLL187, FITC-rituximab at 10 µg per 10^6 cells, median fluorescence intensity, background corrected.
Experiment [10] concerns the target CD20 (UniProt P11836). Briefly: flow cytometry on CLL patient sample CLL177, FITC-rituximab at 10 µg per 10^6 cells, median fluorescence intensity, background corrected.

human CD37 (human), sequence (P11049 whole entry): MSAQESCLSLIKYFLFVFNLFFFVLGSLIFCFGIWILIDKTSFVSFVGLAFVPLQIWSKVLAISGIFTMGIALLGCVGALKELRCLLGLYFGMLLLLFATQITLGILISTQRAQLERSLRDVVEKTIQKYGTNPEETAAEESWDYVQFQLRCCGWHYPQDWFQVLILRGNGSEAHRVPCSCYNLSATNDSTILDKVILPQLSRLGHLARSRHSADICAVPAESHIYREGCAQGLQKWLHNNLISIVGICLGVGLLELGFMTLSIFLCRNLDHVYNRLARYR
biotinylated truncated soluble human FcγRIIb (human), sequence (P31994 43-217): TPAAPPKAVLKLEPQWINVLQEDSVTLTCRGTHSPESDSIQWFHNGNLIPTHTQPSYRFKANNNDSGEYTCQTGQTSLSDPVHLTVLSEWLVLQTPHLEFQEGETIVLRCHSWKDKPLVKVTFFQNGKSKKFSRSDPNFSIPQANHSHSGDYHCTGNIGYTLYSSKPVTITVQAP

In the case of obinutuzumab (antibody), the average potency of the ADCC response (Example 13) in [1] stood at 1.1 nM. Further, the EC50 (read off the curve) was 2 µg/mL in experiment [2]; 0.6 µg/mL in experiment [3]; 2 µg/mL in [4]; 0.6 µg/mL in [5]; 0.06 µg/mL in experiment [6]; 1 µg/mL in experiment [7].

For the substance isotype control antibody, the Normalized average binding (%) with human CD37 (human) stood at 29.5%.

“Anti-CD20 (10F381 rituximab) FITC-conjugated rabbit/human chimeric Ab (antibody)”: in the experiment with CD20 [8], the saturation titer (µg per 10^6 cells) was 10. In addition, the values for the Avg. MFI (a.u.) with CD20 [9] and in the experiment with CD20 [10] were 68 a.u and 52 a.u, respectively.

Usually EC50 (read off the curve) stands for the concentration needed to bring the measured effect to its halfway point.
